Results on 15 sequences are retold here after the supplement of paper PMC9170038.

The subject of the data set is MS2 coat protein. Nature of the data set: apparent KD of MS2 coat protein; higher = weaker reporter binding. To be noted: Eterna round: R107. The method, boiled down:
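On-chip transcription from Illumina sequencing clusters produced the designed RNA switches. These were titrated with SNAP-549-labelled MS2 coat protein (twofold steps, 0.7 or 1.5 nM to 3 µM) in 100 mM Tris-HCl pH 7.5, 80 mM KCl, 4 mM MgCl2, with or without constant ligand. The apparent KD given is the per-design median of normalised cluster binding-curve fits.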

Where [1] appears, read: input ligand: theophylline 20 uM.
[2] abbreviates: input ligand: theophylline 2 mM.
The mark [3] stands for this setting: input ligand: tryptophan 2.4 mM.

Take “GCAUCCUAGUCGGCCGCCACUGCAACAUGAGGAUCACCCAUGUCUGCAUCUUCAUGAUGCAGUAGCAGGACCGGGACUAGGAUGC [(T1)-(M1)-(M2)-(T)''-(M)'-(T)'-(T2)_Design1_2/18/17]”: the “apparent KD of MS2 coat protein” value reads like this: (input ligand: arginine 13.2 mM) 69.4 nM; under setting [1], 153 nM; under setting [2], 242 nM.

In the case of “GCAUCCUAGUCGGCCGCCACUGGUACGAACACCUUCACCCGUGUGCACAUGAGGAUCACCCAUGUCAGGACCGGGACUAGGAUGC [SSTryp B #22]”, the “apparent KD of MS2 coat protein” value is, setting by setting: (input ligand: arginine 13.2 mM) 9.48 nM; under setting [1], 10.9 nM; under setting [2], 8.54 nM.

As to “GCAUGUGGAGUCUUACUAGAGAGGACAGAUACCAGUAAGAUGUGAUACCCUUGGCAGCUGCGAUUUACAUGAGGAUCACCCAUGU [X-TheoA-ms2@67]”, the “apparent KD of MS2 coat protein” value (input ligand: arginine 13.2 mM) came out at 19.2 nM, the “apparent KD of MS2 coat protein” value under setting [1] worked out at 21.4 nM and the “apparent KD of MS2 coat protein” value under setting [3] worked out at 24.7 nM.

On to “GCCAGUCAUAGCAGGGCAAAUAUACUCGAAGGAGCGUCAUAGUAGGCAGGUAGGUCGCGAGACAUGAGGAUCACCCAUGUAGAGA [fffmullin]”, for which the “apparent KD of MS2 coat protein” value runs as follows: (input ligand: arginine 13.2 mM) 30.2 nM; (input ligand: none) 47.4 nM; under setting [1], 59.8 nM; under setting [2], 48.3 nM; under setting [3], 32.8 nM.

With “GCCGGACUUUCGGCCGCCACUGAGAGAGUCGUGUGAACAUGAGGAUCACCCAUGUAAUAUAUAUACAGGACCGGGAGGGUUCGGC [4.S]”, the “apparent KD of MS2 coat protein” value reads like this: (input ligand: arginine 13.2 mM) 10.5 nM; (input ligand: none) 12.2 nM; under setting [1], 18.7 nM; under setting [2], 11.9 nM; under setting [3], 12 nM.

On to “GCCUAGCAUCGAAGGAGCGCUGGUGAAACUGACUAAUAUACAUGAGGAUCACCCAUGUGCUAGCAGGUAGGUCGCGAUGCUAGGC [SSAB NP+V+V2 #11]”, for which the “apparent KD of MS2 coat protein” value by setting is: (input ligand: arginine 13.2 mM) 20.4 nM; (input ligand: none) 21.7 nM; under setting [1], 27.2 nM; under setting [2], 25.5 nM; under setting [3], 21.1 nM.

Take “GCCUCCAGCCGAAGGAGCGCUAGAAGGUGACAUGAGGAUCACCCAUGUGUGUGAUGUGGCUAGCAGGUAGGUCGCGGAGGAGGUA [Exclusion - Arginine B (Freestyle 21)]”: the “apparent KD of MS2 coat protein” value turned out to be 118 nM (input ligand: arginine 13.2 mM); 99.7 nM (input ligand: none); 134 nM under setting [1]; 111 nM under setting [2]; 92 nM under setting [3].

For “GCGACCCUGAGAUCCUACGUAACGUGAACACGAGGACCGGUACGGCCGCCACUCGAGAGAACAUGAGGAUCACCCAUGUCUGAGC [e-trypA-0]”, the “apparent KD of MS2 coat protein” value by setting is: (input ligand: arginine 13.2 mM) 17.3 nM; under setting [1], 37.2 nM; under setting [2], 30.8 nM.

With “GCGCGGCGAGUGCGGCGUGUUCCGCUCCGUCGAGGACCGGUACGGCCGCCACUCGACAUGAGGAUCACCCAUGUCGCCGCGCGUC [Exclusion - Tryptophan A Attempt #1]”, the “apparent KD of MS2 coat protein” value reads like this: (input ligand: arginine 13.2 mM) 12.6 nM; under setting [1], 48.6 nM; under setting [2], 19.2 nM.

Turning to “GCGUACGAUCGGGAUACCAGACAUUGCCGUUAGGGUGAACCUGAGGAACACCCAGGUUUUGUCCCUUGGCAGCCCGAUCGUACGC [ETB NP+V+V2 #8 Diff Apt, Same Structure]”, the “apparent KD of MS2 coat protein” value reads like this: (input ligand: arginine 13.2 mM) 20.6 nM; (input ligand: none) 19.6 nM; under setting [1], 65.8 nM; under setting [2], 136 nM; under setting [3], 27.5 nM.

Take “GCUAGGUCUACGGCCGCCACUAGACGUGGGUAAGACAUGAGGAUCACCCAUGUACUACGGGCGAAUAGGACCGGGUAGACCUAGC [SSTB NP+V+V2 #14 Same Structure]”: the “apparent KD of MS2 coat protein” value (input ligand: arginine 13.2 mM) worked out at 173 nM; the “apparent KD of MS2 coat protein” value (input ligand: none) turned out to be 321 nM; the “apparent KD of MS2 coat protein” value under setting [1] was determined as 499 nM; the “apparent KD of MS2 coat protein” value under setting [2] came out at 668 nM; the “apparent KD of MS2 coat protein” value under setting [3] was 39.1 nM.

“GCUAGGUCUACGGCCGCCACUAGACGUGGGUAAGACAUGAGGAUCACCCAUGUACUACGGGCGAUUAGGACCGGGUAGACCUAGC [SSTB NP+V+V2 #16 Same Structure]”: the “apparent KD of MS2 coat protein” value came out at 50.5 nM (input ligand: arginine 13.2 mM); 309 nM (input ligand: none); 527 nM under setting [1]; 646 nM under setting [2]; 66.9 nM under setting [3].

For the sequence “GCUGCAGCUACGGCCGCCACUGUUACGUGAGACAUGAGGAUCACCCAUGUUGAUGUUUUACGGUAUAGGACCGGGUAGUUGUAGU [E 1.0]”, the “apparent KD of MS2 coat protein” value runs as follows: (input ligand: arginine 13.2 mM) 9.08 nM; under setting [1], 11.8 nM; under setting [2], 10.3 nM.

With “GCUGCUUUGGGAAGGAGCGCUGUGGUAGUGUGGCGGACAUGAGGAUCACCCAUGUGCCUGCAGCAGGUAGGUCGCUUAGGGCAGC [EAP NP+V+V2 #16]”, the “apparent KD of MS2 coat protein” value runs as follows: (input ligand: arginine 13.2 mM) 37.6 nM; (input ligand: none) 24.5 nM; under setting [1], 37.9 nM; under setting [2], 40.1 nM; under setting [3], 36.5 nM.

As for “GCUGUUGCGGUGAGGUAUCCGGCUGUGGAAGGAGCGCGGAAUGCCGCAGGUAGGUCGCCACAUGAGGAUCACCCAUGUCGAUAUA [Atzalama]”, the “apparent KD of MS2 coat protein” value reads like this: (input ligand: arginine 13.2 mM) 25.6 nM; (input ligand: none) 27.2 nM; under setting [1], 45.2 nM; under setting [2], 35 nM; under setting [3], 21.2 nM.
